Results on seven sequences are retold here after the DeepSol protein solubility set.

A short description of this data set: soluble on expression in E. coli; label from the status in PepcDB or PDB records.
Take “MGSDKIHHHHHHMKVGVALSGGVDSAVALYLLLKEGHEVKAFHMKTKEDEFFIKKEIKKKVCCSPSDTADAMRIAHFLGVEIEIVDVKEIFREKVIEPFKRDLLKGLTPNPCAHCNRFVKFGYLMDYVLNQGFDAFASGHYARIEFSEKYGRKVIKKGVDLKKDQSYFLARIEPWRIERLIFPNGIYTKEEIRKIAEEAGIHVAKKQESQDVCFIPDGSIENFLKDEGITLKDGDIITPEGEVVGRHFGYPLYTIGQRKGFKIEKFGRRYYVRGKIPEKNVVVVSDLEDVFFSGLIAEDPVWHVEVPEEFRCVCRVRKKSEEAPAVVKVKDNEVEVSFEKKVFAVTPGQIAAFYDGDTLLGGAIIKEGIR”: the “soluble on expression in E. coli” value was “not soluble”. On to “MSLTTIKTSNLGFPRIDLNREWKKALEAYWKGSTDKDTFLKQIDELFLSAVKTQIDQQIDVVPVSDFTQYDHVLDTAVSFNWIPKRFRHLTDATDTYFAIARGIKDAVSSEMTKWFNTNYHYIVPEYDESIEFRLTRNKQLEDYRRIKQEYGVETKPVIVGPYTFVTLAKGYEPSEAKAIQKRLVPLYVQLLKELEEEGVKWVQIDEPALVTASSEDVRGAKELFESITSELSSLNVLLQTYFDSVDAYEELISYPVQGIGLDFVHDKGRNLEQLKTHGFPTDKVLAAGVIDGRNIWKADLEESLDAVLDVLSIAKVDELWIQPSSSLLDVPVAKHPDEHLEKDLLNGLSYAKEKLAELTALKEGLVSGKAAISEEIQQAKADIQALKQFATGANSEQKKELEQLTDKDFKRPIPFEERLALQNESLGLPLLPTTTIGSFPQSAEVRRARQKWRKAEWSDEQYQNFINAETKRWIDIQEELELDVLVHGEFERTDMVEYFGEKLAGFAFTKYAWVQSYGSRCVRPPVIYGDVEFIEPMTVKDTVYAQSLTSKHVKGMLTGPVTILNWSFPRNDISRKEIAFQIGLALRKEVKALEDAGIQIIQVDEPALREGLPLKTRDWDEYLTWAAEAFRLTTSSVKNETQIHTHMCYSNFEDIVDTINDLDADVITIEHSRSHGGFLDYLKNHPYLKGLGLGVYDIHSPRVPSTEEMYNIIVDALAVCPTDRFWVNPDCGLKTRQQEETVAALKNMVEAAKQARAQQTQLVEGGSHHHHHH”, for which the “soluble on expression in E. coli” value was “soluble”. For “MATFPHFGTAAIHVGQEPEQWDMNQVVPPISLSSTYKQDNPGEPKGHDYSRAGNPTRDVLQKNLAALEDAKHCQVFSSGLAATSAIINLLKYGDHIVCSDDVYGGTQRYIRRVAVPNHGLEVDSVDLTDVQNLEKAIKPNTKMVWFESPSNPLLKVVDIAAVVQTAKKANPEIVVVVDNTFMSPYFQRPISLGADVVVHSITKYINGHSDVVMGAVITDNDEFQQHLFFMQLAVGAVPSPFDCFLVNRGLKTLHIRMRAHYENALAVAKYLEANDRIESVLYPALPSHPQHEVHEKQTKGMSGMISFYLKGELQESRAFLSALKVFTLAESLGGYESLAELPSIMTHASVPAETRIVLGITDNLIRISVGIEDLDDLVADLDQALKIAIPKV” the value was “not soluble”; for “MIKEKYTFDDLVEIMKILRSENGCPWDRVQNHESLKKYLIEETYEVLEVIDLNDKKRLCEELGDLLLQIVFHAQIASEDNEFDINDVITGICRKMVQRHTHVFGTDKADTAEEVLANWEEIKKKEKGMESQTEVLKSVPSNLPALMRSYKVQQKASQVGFDWKDIDSVFEKVYEEINELRDVYKSKDVERINDELGDVLFSIVNLSRFLKVQPELALMGSVNKFIERFEFIEKEAAKSGRTLSEMSLDEMDELWNKAKTKI”, “soluble”; for “MDKRYLESDVFEAFQERLSYLFNEFDYIYVSFSGGKDSGLLLNLVLDYKRKNNISSKIGVFHQDFEAQYSLTTEYVEKVFEDNIEDIEPYWVCLPMATRTAVGNYEMYWYPWDDEKEELWVREMPVKEYIINQKNNPFTYYKYKMRQESLAKQFGRWIRDIHEGAKVVCLLGTRAAESLQRYCSIVNKQHGYKGKCWITKEFKNVWTASPIYDWEIEDIWLAHYKFDYDYNKIYDLFYK”, “not soluble”. For “MQGLQLPQIYFSAAERRPKFVMKTGLSATEKNEVIKAAYRQIFERDITRAYSLSISDLESKVKNGDISMKEFVRRLAKSPLYQKQFYQPFINSRVIELAFRHILGRGPSSREEVQKYFSIISNGGLPALVDALVDSAEYSDYFGEETVPYLRGLGQEALEHHHHHH” the value was “not soluble”.

In the case of “GMGMEHKTYEADLFVWCQQQADGLRALSRSRRDLPDDLDLEHIAEEIEDMGRSELREATSLVRQICVRVIMAMSAPEAPDRARWRSEVVSWHNLLLDTITPGMIDRIDIGVIWRRAVSEAKAALIEINVAPQAGLSFQAPLPADHFLDEDFDYDATVARLGPTA”, the “soluble on expression in E. coli” value is “soluble”.
